Reference: publication PMC6879610 (Nature Communications, 2019)
Numbering of substitutions follows the chain as printed.

Legend:
Conditions in all cases: both partners purified
MPER peptide PDT-081 [1] = target: T1, MPER peptide PDT-081 (HIV-1, strain  (synthetic …)); assay: BLI; Octet RED96; biotinylated peptide PDT-081 (7.5 μg/ml) on streptavidin biosensors; serial dilution of Fab, 5 min association, 5 min dissociation; PBS/0.002% Tween 20/0.01% BSA; KD as koff/kon
T1 construct: also called full-length MPER
T1 sequence (P05877 655-684): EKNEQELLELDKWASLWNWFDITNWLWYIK

MPER peptide PDT-081 [2] = target: T2, MPER peptide PDT-081 (HIV-1, strain  (synthetic …)); assay: BLI; Octet RED96; biotinylated MPER peptide PDT-081 (7.5 ug/ml) captured on streptavidin biosensors; serial dilution of Fab, 5 min association, 5 min dissociation; PBS/0.002% Tween 20/0.01% bovine serum albumin; KD = koff/kon from five sensorgrams of the dilution series
T2 construct: also called PDT081pept
T2 sequence (P05877 655-684): as above

MPER peptide PDT-081 [3] = target: T1, MPER peptide PDT-081; assay: ELISA; 250 ng antigen per well coated overnight at 4 °C in PBS; serial dilutions of antibody 1 h at 37 °C; detected with anti-human IgG Fc-HRP
MPER peptide PDT-081 [4] = target: T2, MPER peptide PDT-081; assay: BLI; Octet RED96; biotinylated MPER peptide PDT-081 (7.5 ug/ml) captured on streptavidin biosensors; serial dilution of Fab, 5 min association, 5 min dissociation; PBS/0.002% Tween 20/0.01% bovine serum albumin; KD = koff/kon from five sensorgrams of the dilution series; remark: listed apart in the source
MPER peptide PDT-081 [5] = target: T2, MPER peptide PDT-081; assay: as above; remark: listed apart in the source
ovalbumin = ovalbumin (Gallus gallus (species assumed), UniProt P01012); assay: ELISA; 250 ng antigen per well coated overnight at 4 °C in PBS; serial dilutions of antibody 1 h at 37 °C; detected with anti-human IgG Fc-HRP
MPER peptide PDT-081 [6] = target: T2, MPER peptide PDT-081; assay: BLI; Octet RED96; biotinylated MPER peptide PDT-081 (7.5 ug/ml) captured on streptavidin biosensors; serial dilution of Fab, 5 min association, 5 min dissociation; PBS/0.002% Tween 20/0.01% bovine serum albumin; KD = koff/kon from five sensorgrams of the dilution series; remark: listed apart in the source
MPER peptide PDT-081 [7] = target: T2, MPER peptide PDT-081; assay: as above; remark: listed apart in the source
MPER peptide PDT-081 [8] = target: T2, MPER peptide PDT-081; assay: as above; remark: listed apart in the source

B1: PGZL1 gVmDmJ Fab (Fab, V domains shown)
VH: QVQLVQSGAEVKKPGSSVKVSCKASGGTFSSYAISWVRQAPGQGLEWMGGIIPIFGTANYAQKFQGRVTITADKSTSTAYMELSSLRSEDTAVYYCAREGEGWFGKPLRAFEFWGQGTVITVSS
VL: not shown
notes: also called inferred germline PGZL1 Fab
Binder B1 has a Kd (MPER peptide PDT-081 [1]) of 64.4 nM.

B2: PGZL1 gVgDgJ Fab (Fab, V domains shown)
VH: B1 VH with K106E, E112D, F113V
VL: not shown
B2 was tested, and the koff (MPER peptide PDT-081 [2]) was 0.00802 s⁻¹ and the kon (MPER peptide PDT-081 [2]) was 8550 M⁻¹ s⁻¹.

B3: PGZL1 gVgDgJ IgG (antibody, V domains shown)
VH: B1 VH with K106E, E112D, F113V
VL: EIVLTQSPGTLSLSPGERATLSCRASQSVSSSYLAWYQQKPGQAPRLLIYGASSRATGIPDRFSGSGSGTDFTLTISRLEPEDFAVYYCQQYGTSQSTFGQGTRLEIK
With B3 the “fold increase in EC50” value (MPER peptide PDT-081 [3]) was 369 fold.

B4: PGZL1 gVmDmJ Fab (Fab, V domains shown)
VH: B1 VH
VL: not shown
Binder B4 has a koff (MPER peptide PDT-081 [4]) of 0.000991 s⁻¹ and a kon (MPER peptide PDT-081 [4]) of 15400 M⁻¹ s⁻¹.

B5: PGZL1 gVgDgJ Fab (Fab, V domains shown)
VH: B1 VH with K106E, E112D, F113V
VL: not shown
B5 was tested, and the Kd (MPER peptide PDT-081 [1]) was 938 nM.

B6: PGZL1 gVgDmJ Fab (Fab, V domains shown)
VH: B1 VH with K106E
VL: not shown
In the case of B6, the koff (MPER peptide PDT-081 [5]) is reported as 0.00197 s⁻¹ and the kon (MPER peptide PDT-081 [5]) is reported as 13300 M⁻¹ s⁻¹.

B7: PGZL1 gVgDmJ Fab (Fab, V domains shown)
VH: B1 VH with K106E
VL: not shown
B7 gave a Kd (MPER peptide PDT-081 [1]) of 148 nM.

B8: 4E10 (antibody, V domains shown)
VH: QVQLVQSGAEVKRPGSSVTVSCKASGGSFSTYALSWVRQAPGRGLEWMGGVIPLLTITNYAPRFQGRITITADRSTSTAYLELNSLRPEDTAVYYCAREGTTGWGWLGKPIGAFAHWGQGTLVTVSS
VL: EIVLTQSPGTQSLSPGERATLSCRASQSVGNNKLAWYQQRPGQAPRLLIYGASSRPSGVADRFSGSGSGTDFTLTISRLEPEDFAVYYCQQYGQSLSTFGQGTKVEVK
notes: also called BnAb 4E10; mature 4E10
B8: binds (ovalbumin).

B9: 4E10 L100cF (whole antibody) (antibody, V domains shown)
VH: B8 VH with L107F
VL: B8 VL
B9: binds (ovalbumin).

B10: H4K3_SFS28EPE Fab (Fab, V domains shown)
VH: KVQLVQSGAELKKPWSSVRVSCKASGGEPESYAFNWVRQAPGQRLEWLGGIVPLVSSTNYAQRFRGRVTISADRSTSTVYLEMTGLTSADTAVYFCAREGEGWFGRPLRAFEFWGQGTLVTVST
VL: EIVLTQSPGTFALSPGERATLSCRASQSVSGGALAWYQQKAGQAPRLLIYDTSGRATGVPGRFSGSGSETDFSLTISRLEPEDFAVYYCQQYGTSQSTFGQGTRLETR
For B10, the Kd (MPER peptide PDT-081 [6]) was 15.1 nM, the koff (MPER peptide PDT-081 [6]) was 0.000539 s⁻¹ and the kon (MPER peptide PDT-081 [6]) was 35700 M⁻¹ s⁻¹.

B11: H4K3_RS73PE Fab (Fab, V domains shown)
VH: B10 VH with E28S, P29F, E30S, R74P, S75E
VL: B10 VL
With B11 the Kd (MPER peptide PDT-081 [7]) was 12.8 nM, the koff (MPER peptide PDT-081 [7]) was 0.000509 s⁻¹ and the kon (MPER peptide PDT-081 [7]) was 39700 M⁻¹ s⁻¹.

B12: H4K3_5M Fab (Fab, V domains shown)
VH: B10 VH with R74P, S75E
VL: B10 VL
Binder B12 has a Kd (MPER peptide PDT-081 [8]) of 23.4 nM, a koff (MPER peptide PDT-081 [8]) of 0.000674 s⁻¹ and a kon (MPER peptide PDT-081 [8]) of 28800 M⁻¹ s⁻¹.
